Sequences and labels used below:
B1: H237-MB812/MRAL-k0 (antibody, mouse IgG1, kappa)
heavy: QVQLQESGPGLVKPSETLSLTCAVSGHSISHDHAWSWVRQPPGEGLEWIGFISYSGITNYNPSLQGRVTISRDNSKNTLYLQMNSLRAEDTAVYYCARSLARTTAMDYWGEGTLVTVSSAKTTPPSVYPLAPGSAAQTNSMVTLGCLVKGYFPEPVTVTWNSGSLSSGVHTFPAVLQSDLYTLSSSVTVPSSTWPSETVTCNVAHPASSTKVDKKIVPRDCGCKPCICEPNEVELVFIFPPKPKDVLTITLTPKVTCVVVDISKDDPEVQFSWFVDDVEVHTAQTQPREEQFNSTFRSVSELPIMHQDWLNGKEFKCRVDSAGFPAPIEKTISKTKGRPKAPQVYTIPPPKEQMAKDKVSLTCMITDFFPEDITVEWQWNGQPAENYKNTQPIMDTDGSYFVYSKLNVQKSNWEAGNTFTCSVLHEGLHNHHTEKSLSHSPGK
light: not shown
notes: copies: 2 + 2
B2: H237-MB816/MRAL-k0 (antibody, mouse IgG1, kappa)
heavy: B1 heavy with D320M, A322D, G323A
light: not shown
notes: copies: 2 + 2
B3: H237-MB820/MRAL-k0 (antibody, mouse IgG1, kappa)
heavy: B1 heavy with D320M, G323A, E329Y
light: not shown
notes: copies: 2 + 2
B4: H237-MB827/MRAL-k0 (antibody, mouse IgG1, kappa)
heavy: B1 heavy with D320N, P327Y
light: not shown
notes: copies: 2 + 2
B5: H237-MB819/MRAL-k0 (antibody, mouse IgG1, kappa)
heavy: B1 heavy with D320M, G323A, P327Y
light: not shown
notes: copies: 2 + 2
B6: H237-MB825/MRAL-k0 (antibody, mouse IgG1, kappa)
heavy: B1 heavy with D320N, A322D, G323A, E329Y
light: not shown
notes: copies: 2 + 2
B7: H237-MB834/MRAL-k0 (antibody, mouse IgG1, kappa)
heavy: B1 heavy with D320N, G323A, E329Y, K330R
light: not shown
notes: copies: 2 + 2
B8: H237-MB818/MRAL-k0 (antibody, mouse IgG1, kappa)
heavy: B1 heavy with D320M, G323A, P327F
light: not shown
notes: copies: 2 + 2
B9: H237-MB821/MRAL-k0 (antibody, mouse IgG1, kappa)
heavy: B1 heavy with D320M, G323A, K330R
light: not shown
notes: copies: 2 + 2
B10: H237-MB833/MRAL-k0 (antibody, mouse IgG1, kappa)
heavy: B1 heavy with D320N, G323A, P327Y, K330R
light: not shown
notes: copies: 2 + 2
B11: H237-MB813/MRAL-k0 (antibody, mouse IgG1, kappa)
heavy: B1 heavy with G323A, P327F
light: not shown
notes: copies: 2 + 2
B12: H237-MB815/MRAL-k0 (antibody, mouse IgG1, kappa)
heavy: B1 heavy with G323A, E329Y
light: not shown
notes: copies: 2 + 2
B13: H237-MB829/MRAL-k0 (antibody, mouse IgG1, kappa)
heavy: B1 heavy with D320N, K330R
light: not shown
notes: copies: 2 + 2
B14: H237-MB823/MRAL-k0 (antibody, mouse IgG1, kappa)
heavy: B1 heavy with D320N, A322D, G323A, P327F
light: not shown
notes: copies: 2 + 2
B15: H237-MB831/MRAL-k0 (antibody, mouse IgG1, kappa)
heavy: B1 heavy with D320N, G323A, P327F, K330R
light: not shown
notes: copies: 2 + 2
B16: H237-MB824/MRAL-k0 (antibody, mouse IgG1, kappa)
heavy: B1 heavy with D320N, A322D, G323A, P327Y
light: not shown
notes: copies: 2 + 2
B17: H237-MB826/MRAL-k0 (antibody, mouse IgG1, kappa)
heavy: B1 heavy with D320N, P327F
light: not shown
notes: copies: 2 + 2
B18: H237-MB814/MRAL-k0 (antibody, mouse IgG1, kappa)
heavy: B1 heavy with G323A, P327Y
light: not shown
notes: copies: 2 + 2
B19: H237-MB817/MRAL-k0 (antibody, mouse IgG1, kappa)
heavy: B1 heavy with D320M
light: not shown
notes: copies: 2 + 2
B20: H237-MB822/MRAL-k0 (antibody, mouse IgG1, kappa)
heavy: B1 heavy with D320N, A322D
light: not shown
notes: copies: 2 + 2
B21: H237-MB828/MRAL-k0 (antibody, mouse IgG1, kappa)
heavy: B1 heavy with D320N, E329Y
light: not shown
notes: copies: 2 + 2

By Kd is commonly meant the constant that tells how readily two partners part at equilibrium. A low value points to a tighter complex.

Residue numbers refer to the chain shown, from its start.

In one assay the target is T1, mouse FcγRII extracellular domain, C-terminal His tag (mouse, UniProt P08101 30-210).
T1 construct: also called mFcγRII; mFcgRII
T1 sequence: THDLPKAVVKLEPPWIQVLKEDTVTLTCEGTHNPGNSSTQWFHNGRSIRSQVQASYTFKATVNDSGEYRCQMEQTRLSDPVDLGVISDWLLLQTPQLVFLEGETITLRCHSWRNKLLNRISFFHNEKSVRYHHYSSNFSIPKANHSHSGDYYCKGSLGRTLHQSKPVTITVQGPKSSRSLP
The assay is described as follows: SPR (Biacore T200), antibody captured on Protein L, mFcγR analyte. (In SPR one partner is held on a chip, and binding of the other changes the refractive index at the surface.)
Regarding B1, the equilibrium dissociation constant (Kd) was determined as 6.28 nM and the “relative mFcγRII-binding activity (mIgG1 = 1)” value was 33.4 fold vs H237-mIgG1/MRAL-k0.
Taken in the same sequence, the figures for B2 were 6.9 nM and 30.4 fold vs H237-mIgG1/MRAL-k0.
The like results for B3 were, in that order, 10.8 nM and 19.5 fold vs H237-mIgG1/MRAL-k0.
Taken in the same sequence, the figures for B4 were 9.77 nM and 21.5 fold vs H237-mIgG1/MRAL-k0.
Consider B5, for which binding was put at a Kd of 11.6 nM and the “relative mFcγRII-binding activity (mIgG1 = 1)” value is 18.1 fold vs H237-mIgG1/MRAL-k0.
The like results for B6 were, in that order, 7.38 nM and 28.4 fold vs H237-mIgG1/MRAL-k0.
Taken in the same sequence, the figures for B7 were 12.4 nM and 17 fold vs H237-mIgG1/MRAL-k0.
The like results for B8 were, in that order, 13.5 nM and 15.6 fold vs H237-mIgG1/MRAL-k0.
In the case of B9, the dissociation constant (Kd) came to 8.6 nM and the “relative mFcγRII-binding activity (mIgG1 = 1)” value is 24.4 fold vs H237-mIgG1/MRAL-k0.
In the case of B10, the Kd is 8.31 nM and the “relative mFcγRII-binding activity (mIgG1 = 1)” value was 25.3 fold vs H237-mIgG1/MRAL-k0.
The like results for B11 were, in that order, 12.9 nM and 16.3 fold vs H237-mIgG1/MRAL-k0.
The like results for B12 were, in that order, 12 nM and 17.6 fold vs H237-mIgG1/MRAL-k0.
Take B13: the Kd came to 6.22 nM and the “relative mFcγRII-binding activity (mIgG1 = 1)” value was 33.8 fold vs H237-mIgG1/MRAL-k0.
The like results for B14 were, in that order, 8.39 nM and 25 fold vs H237-mIgG1/MRAL-k0.
Regarding B15, the Kd is 9.4 nM and the “relative mFcγRII-binding activity (mIgG1 = 1)” value is 22.3 fold vs H237-mIgG1/MRAL-k0.
The like results for B16 were, in that order, 7.51 nM and 28 fold vs H237-mIgG1/MRAL-k0.
Taken in the same sequence, the figures for B17 were 11.4 nM and 18.5 fold vs H237-mIgG1/MRAL-k0.
For the molecule B18, the Kd came to 11.7 nM and the “relative mFcγRII-binding activity (mIgG1 = 1)” value is 18 fold vs H237-mIgG1/MRAL-k0.
Taken in the same sequence, the figures for B19 were 7.38 nM and 28.5 fold vs H237-mIgG1/MRAL-k0.
On to B20, for which the Kd came out at 4.8 nM and the “relative mFcγRII-binding activity (mIgG1 = 1)” value is 43.8 fold vs H237-mIgG1/MRAL-k0.
Taken in the same sequence, the figures for B21 were 7.4 nM and 28.4 fold vs H237-mIgG1/MRAL-k0.

The next assay has as its target T2, mouse FcγRIII extracellular domain, C-terminal His tag (mouse, UniProt P08508 31-215).
T2 construct: also called mFcγRIII; mFcgRIII
T2 chain: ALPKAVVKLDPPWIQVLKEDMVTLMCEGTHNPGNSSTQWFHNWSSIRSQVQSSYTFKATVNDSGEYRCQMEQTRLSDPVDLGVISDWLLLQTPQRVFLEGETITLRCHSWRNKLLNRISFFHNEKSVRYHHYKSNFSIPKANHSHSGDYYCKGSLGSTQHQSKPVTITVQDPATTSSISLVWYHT
The assay is described as above.
For the molecule B1, the Kd came to 418 nM and the “relative mFcγRIII-binding activity (mIgG1 = 1)” value was 0.7 fold vs H237-mIgG1/MRAL-k0.
The like results for B2 were, in that order, 431 nM and 0.7 fold vs H237-mIgG1/MRAL-k0.
Taken in the same sequence, the figures for B3 were 854 nM and 0.3 fold vs H237-mIgG1/MRAL-k0.
Taken in the same sequence, the figures for B4 were 744 nM and 0.4 fold vs H237-mIgG1/MRAL-k0.
On to B5, for which the Kd stood at 872 nM and the “relative mFcγRIII-binding activity (mIgG1 = 1)” value is 0.3 fold vs H237-mIgG1/MRAL-k0.
The like results for B6 were, in that order, 564 nM and 0.5 fold vs H237-mIgG1/MRAL-k0.
Taken in the same sequence, the figures for B7 were 976 nM and 0.3 fold vs H237-mIgG1/MRAL-k0.
Taken in the same sequence, the figures for B8 were 979 nM and 0.3 fold vs H237-mIgG1/MRAL-k0.
Regarding B9, the affinity, expressed as Kd, was 625 nM and the “relative mFcγRIII-binding activity (mIgG1 = 1)” value was 0.5 fold vs H237-mIgG1/MRAL-k0.
The like results for B10 were, in that order, 630 nM and 0.4 fold vs H237-mIgG1/MRAL-k0.
The like results for B11 were, in that order, 951 nM and 0.3 fold vs H237-mIgG1/MRAL-k0.
As for B12, the Kd was 938 nM and the “relative mFcγRIII-binding activity (mIgG1 = 1)” value is 0.3 fold vs H237-mIgG1/MRAL-k0.
The like results for B13 were, in that order, 445 nM and 0.6 fold vs H237-mIgG1/MRAL-k0.
The like results for B14 were, in that order, 575 nM and 0.5 fold vs H237-mIgG1/MRAL-k0.
Taken in the same sequence, the figures for B15 were 716 nM and 0.4 fold vs H237-mIgG1/MRAL-k0.
As to B16, the Kd stood at 500 nM and the “relative mFcγRIII-binding activity (mIgG1 = 1)” value is 0.6 fold vs H237-mIgG1/MRAL-k0.
Taken in the same sequence, the figures for B17 were 829 nM and 0.3 fold vs H237-mIgG1/MRAL-k0.
Taken in the same sequence, the figures for B18 were 826 nM and 0.3 fold vs H237-mIgG1/MRAL-k0.
On to B19, for which binding was characterised by a dissociation constant (Kd) of 539 nM and the “relative mFcγRIII-binding activity (mIgG1 = 1)” value is 0.5 fold vs H237-mIgG1/MRAL-k0.
The like results for B20 were, in that order, 304 nM and 0.9 fold vs H237-mIgG1/MRAL-k0.
The like results for B21 were, in that order, 571 nM and 0.5 fold vs H237-mIgG1/MRAL-k0.

The values are drawn from patent US20150203577A1 (Chugai, published 2015).
